For 25 molecules, Kd, koff and kon results are on record in US20240124597A1 (Bristol-Myers Squibb, published 2024).

One may read the koff as the rate constant with which the complex falls apart. A word on the kon: it is the rate constant with which the complex forms.

B1: Y1258 (antibody, human IgG1, kappa)
heavy: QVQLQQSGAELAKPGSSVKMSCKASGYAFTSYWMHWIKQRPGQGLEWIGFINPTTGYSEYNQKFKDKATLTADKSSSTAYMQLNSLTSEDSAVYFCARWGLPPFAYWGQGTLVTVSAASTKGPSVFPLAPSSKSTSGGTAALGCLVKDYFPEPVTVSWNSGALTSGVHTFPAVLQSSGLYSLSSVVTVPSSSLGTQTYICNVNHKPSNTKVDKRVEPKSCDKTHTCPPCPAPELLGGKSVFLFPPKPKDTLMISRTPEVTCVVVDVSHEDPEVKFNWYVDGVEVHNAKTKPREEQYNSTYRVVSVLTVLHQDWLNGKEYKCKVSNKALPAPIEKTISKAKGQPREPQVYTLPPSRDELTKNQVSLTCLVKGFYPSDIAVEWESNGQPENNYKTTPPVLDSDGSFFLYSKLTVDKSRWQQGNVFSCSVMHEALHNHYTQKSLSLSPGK
light: DIVMTQSHKFMSTSVGDRVSITCKASQDVSTAVAWYQQKPGQSPKLLIYSASYRYTGVPDRFTGSGSGTDFTFTISSVQAEDLAVYYCQQHYSTPWTFGGGTKLEIKRTVAAPSVFIFPPSDEQLKSGTASVVCLLNNFYPREAKVQWKVDNALQSGNSQESVTEQDSKDSTYSLSSTLTLSKADYEKHKVYACEVTHQGLSSPVTKSFNRGEC
notes: Chimeric, mouse variable and human constant regions; supernatant sample; also called chimeric Y1258
B2: Y1262 (antibody, human IgG1, kappa)
heavy: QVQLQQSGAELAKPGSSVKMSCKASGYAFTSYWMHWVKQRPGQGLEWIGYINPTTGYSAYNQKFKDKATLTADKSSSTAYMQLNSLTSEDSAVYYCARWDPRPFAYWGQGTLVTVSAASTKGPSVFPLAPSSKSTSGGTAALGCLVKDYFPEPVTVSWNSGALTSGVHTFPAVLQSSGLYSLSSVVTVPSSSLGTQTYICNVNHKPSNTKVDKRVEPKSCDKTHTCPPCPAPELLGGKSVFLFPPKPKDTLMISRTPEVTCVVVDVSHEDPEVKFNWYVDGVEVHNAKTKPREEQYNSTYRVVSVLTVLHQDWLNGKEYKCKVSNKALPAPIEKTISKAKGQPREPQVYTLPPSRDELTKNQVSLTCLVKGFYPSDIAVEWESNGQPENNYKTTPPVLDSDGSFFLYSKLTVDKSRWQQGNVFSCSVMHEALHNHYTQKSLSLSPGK
light: B1 light with S67Y
notes: Chimeric, mouse variable and human constant regions; supernatant sample; also called chimeric Y1262; Chim
B3: Y12XX-hz17 (antibody, human IgG1, kappa, V domains shown)
VH: QVQLVQSGAEVKKPGSSVKVSCKASGYAFTSYWMHWVRQRPGQGLEWIGFINPTTGYSEYNQKFKDRVTITADKSTSTAYMELNSLRSEDTAVYYCARWGLPPFAYWGQGTLVTVSS
VL: DIQMTQSPSFLSASVGDRVTITCKASQDVSTAVAWYQQKPGKAPKLLIYSASYRYTGVPSRFSGSGSGTDFTLTISSLQPEDFATYYCQQHYSTPWTFGGGTKVEIKR
notes: Humanized, IgG1-P238K; supernatant sample
B4: Y12XX-hz18 (antibody, human IgG1, kappa, V domains shown)
VH: QVQLVQSGAEVKKPGSSVKVSCKASGYAFTSYWMHWVRQAPGQGLEWMGYINPTTGYSAYNQKFKDKATLTADKSTSTAYMELSSLRSEDTAVYYCARWDPRPFAYWGQGTLVTVSS
VL: B3 VL
notes: as for B3
B5: Y12XX-hz6 (antibody, human IgG1, kappa, V domains shown)
VH: B4 VH with A40R, M48I, S84N
VL: B3 VL with F10S, L73F, F83I
notes: as for B3
B6: Y12XX-hz20 (antibody, human IgG1, kappa, V domains shown)
VH: B4 VH with A40R, M48I, S84N
VL: B3 VL
notes: as for B3
B7: Y12XX-hz34 (antibody, human IgG1, kappa, V domains shown)
VH: B4 VH with A40R, M48I, S84N
VL: EIVMTQSPATLSVSPGERATLSCKASQDVSTAVAWYQQKPGQAPRLLIYSASYRYTGIPARFSGSGSGTEFTLTISSLQSEDFAVYYCQQHYSTPWTFGGGTKVEIKR
notes: as for B3
B8: Y12XX-hz19 (antibody, human IgG1, kappa, V domains shown)
VH: B4 VH with A40R
VL: B3 VL
notes: as for B3
B9: Y12XX-hz22 (antibody, human IgG1, kappa, V domains shown)
VH: B4 VH with P101A
VL: B3 VL
notes: as for B3
B10: Y12XX-hz26 (antibody, human IgG1, kappa, V domains shown)
VH: QVQLVQSGAEVKKPGSSVKVSCKASGYAFTSYWMHWVRQAPGQGLEWMGQINPSQGRSQYNEKFKTRVTITADKSTSTAYMELSSLRSEDTAVYYCARWGLQPFAYWGQGTLVTVSS
VL: B3 VL
notes: as for B3
B11: Y12XX-hz30 (antibody, human IgG1, kappa, V domains shown)
VH: B3 VH with I48M, N84S
VL: B7 VL
notes: as for B3
B12: Y12XX-hz41 (antibody, human IgG1, kappa, V domains shown)
VH: B10 VH with Q55N, G56A
VL: B7 VL
notes: as for B3
B13: Y12XX-hz24 (antibody, human IgG1, kappa, V domains shown)
VH: B10 VH with A40R, Q55N
VL: B3 VL
notes: as for B3
B14: Y12XX-hz37 (antibody, human IgG1, kappa, V domains shown)
VH: B10 VH with Q55N
VL: B7 VL
notes: as for B3
B15: Y12XX-hz36 (antibody, human IgG1, kappa, V domains shown)
VH: B4 VH with P101A
VL: B7 VL
notes: as for B3
B16: Y12XX-hz32 (antibody, human IgG1, kappa, V domains shown)
VH: B4 VH
VL: B7 VL
notes: as for B3
B17: Y12XX-hz39 (antibody, human IgG1, kappa, V domains shown)
VH: B10 VH with A40R, M48I, Q55N
VL: B7 VL
notes: as for B3
B18: Y12XX-hz29 (antibody, human IgG1, kappa, V domains shown)
VH: B3 VH with R40A, I48M, N84S
VL: B7 VL
notes: as for B3
B19: Y12XX-hz25 (antibody, human IgG1, kappa, V domains shown)
VH: B10 VH with A40R, M48I, Q55N
VL: B3 VL
notes: as for B3
B20: Y12XX-hz38 (antibody, human IgG1, kappa, V domains shown)
VH: B10 VH with A40R, Q55N
VL: B7 VL
notes: as for B3
B21: Y12XX-hz23 (antibody, human IgG1, kappa, V domains shown)
VH: B10 VH with Q55N
VL: B3 VL
notes: as for B3
B22: Y12XX-hz33 (antibody, human IgG1, kappa, V domains shown)
VH: B4 VH with A40R
VL: B7 VL
notes: as for B3
B23: Y12XX-hz31 (antibody, human IgG1, kappa, V domains shown)
VH: B3 VH
VL: B7 VL
notes: as for B3
B24: Y12XX-hz27 (antibody, human IgG1, kappa, V domains shown)
VH: B10 VH with Q55N, G56A
VL: B3 VL
notes: as for B3
B25: ADX_Y1072.ZZ0-1 (antibody, V domains shown)
VH: QVQFQQSGAELARPGASVKLSCKASGYTFTSYWMQWVKQRPGQGLEWIGTIYPGDGDSRYNQKFKGKALLTADKSSSIAYMQLNSLASEDSAVYFCARFSLYDGYPYYFDYWGQGTTLTVSS
VL: DVVMTQTPLSLPVSLGDQASISCRSSQSLVHRNGNTYLHWYLQKPGQSPKLLIYRVSNRFSGVPDRFSGSGSGTDFTLKISRVEAEDLGIYFCSQSTHFPYTFGGGTKLEIK
notes: Mouse anti-human-CD40 antibody

Substitutions are numbered along the chain they refer to. Numbers in names are those of the source.

For one test, the target named is T1, human-CD40-monomer protein (human, UniProt P25942 21-193, limits assumed).
T1 construct: Soluble monomer generated in house, used as SPR analyte; also called hCD40; hCD40-monomer
T1 sequence (P25942 21-193 limits assumed): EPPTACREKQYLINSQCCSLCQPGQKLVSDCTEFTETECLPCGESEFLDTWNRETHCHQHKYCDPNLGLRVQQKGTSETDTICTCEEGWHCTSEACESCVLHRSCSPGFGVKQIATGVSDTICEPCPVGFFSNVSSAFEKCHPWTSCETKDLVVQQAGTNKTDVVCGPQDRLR
Nature of the test: SPR, Ab captured on protein A, hCD40 monomer 500 and 50 nM, 1:1 fit; supernatant. As for the experimental part: Titer analysis was performed using Biolayer Interferometry (BLI) on an Octet RED instrument (Fortebio) by capturing antibodies from supernatant using protein A sensor tips and measuring capture response with respect to a standard curve obtained using a control antibody sample. SPR data were obtained by capturing antibodies on a protein A surface and testing the binding of 500 nM and 50 nM injections of human-CD40 analyte, using a BIAcore™ T200 instrument (GE Healthcare). The kinetic data for the two concentrations of hCD40-monomer were fit to a 1:1 Langmuir model, to yield estimates of the kinetic and affinity values for these interactions, and for comparison of the different molecules.
(Surface plasmon resonance follows binding to a sensor surface in real time, without labels.)
B1 gave a Kd of 0.067 nM, a koff of 3.8e-06 s⁻¹ and a kon of 56000 M⁻¹ s⁻¹.

B2 showed a Kd of 8 nM, a koff of 0.0028 s⁻¹ and a kon of 350000 M⁻¹ s⁻¹.

On to B3, for which the Kd worked out at 210 nM, the off-rate constant (koff) is 0.077 s⁻¹ and the kon came to 370000 M⁻¹ s⁻¹.

B4 yielded a Kd of 7.1 nM, a koff of 0.0024 s⁻¹ and a kon of 350000 M⁻¹ s⁻¹.

For B5, the Kd came out at 6.4 nM, the koff was found to be 0.0024 s⁻¹ and the on-rate constant (kon) came to 380000 M⁻¹ s⁻¹.

In turn, B6 yielded a Kd of 8.2 nM, a koff of 0.0025 s⁻¹ and a kon of 310000 M⁻¹ s⁻¹.

Take B7: the Kd was 7.6 nM, the dissociation rate constant (koff) was determined as 0.0028 s⁻¹ and the kon amounted to 370000 M⁻¹ s⁻¹.

Regarding B8, the Kd worked out at 6.2 nM, the koff came to 0.0023 s⁻¹ and the kon stood at 380000 M⁻¹ s⁻¹.

Turning to B9, the Kd was determined as 210 nM, the koff was 0.079 s⁻¹ and the kon turned out to be 370000 M⁻¹ s⁻¹.

Take B10: the Kd was 7.5 nM, the koff came to 0.0012 s⁻¹ and the kon is 160000 M⁻¹ s⁻¹.

For B11, the Kd was 0.018 nM, the koff was determined as 7.3e-07 s⁻¹ and the kon came out at 41000 M⁻¹ s⁻¹.

Consider B12, for which the Kd was 3.8 nM, the koff stood at 0.00094 s⁻¹ and the kon amounted to 250000 M⁻¹ s⁻¹.

Regarding B13, the Kd stood at 4.4 nM, the off-rate (koff) came to 0.00082 s⁻¹ and the on-rate constant (kon) is 190000 M⁻¹ s⁻¹.

In the case of B14, the Kd was 3.3 nM, the koff was determined as 0.00084 s⁻¹ and the kon stood at 260000 M⁻¹ s⁻¹.

B15 displayed a Kd of 250 nM, a koff of 0.1 s⁻¹ and a kon of 390000 M⁻¹ s⁻¹.

The molecule B16 gave a Kd of 10 nM, a koff of 0.003 s⁻¹ and a kon of 290000 M⁻¹ s⁻¹.

The molecule B17 yielded a Kd of 3.5 nM, a koff of 0.00084 s⁻¹ and a kon of 240000 M⁻¹ s⁻¹.

In turn, B18 returned a Kd of 0.069 nM, a koff of 2.6e-06 s⁻¹ and a kon of 37000 M⁻¹ s⁻¹.

B19 displayed a Kd of 3.4 nM, a koff of 0.00064 s⁻¹ and a kon of 190000 M⁻¹ s⁻¹.

As for B20, the Kd was found to be 3.6 nM, the koff stood at 0.00088 s⁻¹ and the kon stood at 250000 M⁻¹ s⁻¹.

In turn, B21 displayed a Kd of 3.2 nM, a koff of 0.00064 s⁻¹ and an on-rate (kon) of 200000 M⁻¹ s⁻¹.

The molecule B22 showed a Kd of 11 nM, a koff of 0.0033 s⁻¹ and a kon of 290000 M⁻¹ s⁻¹.

Molecule B23 displayed a Kd of 0.007 nM, a koff of 2.9e-07 s⁻¹ and a kon of 41000 M⁻¹ s⁻¹.

Molecule B24 returned a Kd of 4.7 nM, an off-rate (koff) of 0.00088 s⁻¹ and a kon of 190000 M⁻¹ s⁻¹.

Another test has as its target T1, human-CD40-monomer protein. The test is described as follows: SPR, Ab captured on protein A, 1 uM hCD40 monomer, single concentration, apparent value. As for the experimental part: The CD40 kinetic and affinity data for human-CD40 monomer binding to mouse anti-human CD40 antibodies captured on a protein A sensor chip surface were assessed by SPR. The data shown are for a single concentration of CD40 analyte (1 μM) and are therefore reported as apparent (app) values.
On to B25, for which the Kd amounted to 120 nM, the koff was determined as 0.0092 s⁻¹ and the kon worked out at 77000 M⁻¹ s⁻¹.
